Measured values reported in US20050137135A1 (priority 2002, published 2005).
“Also recorded” adds a separate entry of the source. Ends that are not written are not given here.

How the values were obtained:
[1] = system: caspase-3 activity in INS-1 (832/13) cells; assay: Caspase-3 activity induced by glucose deprivation; type: cell-based; details: 6 h; 100 nM GIP, 10 µM forskolin
Protocol: INS-1 cells (clone 832/13) seeded into 6-well plates were serum starved for 12-24 h and subjected to glucose deprivation (RPMI with 0.1% BSA) or treatment with 2 mM streptozotocin (STZ). […] Following treatment, caspase-3 activity was determined after 2, 6, or 24 h according to the manufacturers' protocol (Molecular Probes, Eugene, Oreg., USA). Caspase-3 activity/well was corrected for total protein content using the BCA protein assay (Pierce, Roxford, II, USA).

[2] = system: INS-1 (832/13) cells; assay: Glucose dependent β-cell proliferation (CYQUANT cell quantification); type: cell-based
Protocol: (§1) Cell passages 45-60 were used.
Cells were seeded into 96-well plates (5×10^4 cells/well) prior to experimentation. […] Thereafter, cells were washed with KRBH (115 mM NaCl, 4.7 mM KCl, 1.2 mM KH2PO4, 10 mM NaHCO3, 1.28 mM CaCl2, 1.2 mM MgSO4 containing 10 mM HEPES and 0.1% bovine serum albumin, pH 7.4) and frozen at −70° C. until assayed. Cells were quantified using the CYQUANT™ assay system (Molecular Probes, Eugene, Oreg., USA) according to the manufacturers' protocol. Final cell numbers were always greater than the initial number plated in assessing cellular proliferation.

[3] = system: INS-1 (832/13) cells; assay: Cell survival during glucose deprivation (CYQUANT); type: cell-based; details: inhibitor added 15 min prior to final 24 h culture, 100 nM GIP
Protocol: as §1
Cells were seeded into 96-well plates (5×10^4 cells/well) prior to experimentation. […] Cells were quantified using the CYQUANT™ assay system (Molecular Probes, Eugene, Oreg., USA) according to the manufacturers' protocol.
Cell survival was assessed in the presence of prolonged glucose deprivation.

[4] = molecular target: T1, rat pancreatic islet (wild type) GIP-receptor stably expressed on CHO-K1 cells (rat) (UniProt P43219); assay: displacement of 125I-GIP from intact CHO-K1 cells expressing rat GIP receptor, 10 µM peptide
T1 sequence (looked up): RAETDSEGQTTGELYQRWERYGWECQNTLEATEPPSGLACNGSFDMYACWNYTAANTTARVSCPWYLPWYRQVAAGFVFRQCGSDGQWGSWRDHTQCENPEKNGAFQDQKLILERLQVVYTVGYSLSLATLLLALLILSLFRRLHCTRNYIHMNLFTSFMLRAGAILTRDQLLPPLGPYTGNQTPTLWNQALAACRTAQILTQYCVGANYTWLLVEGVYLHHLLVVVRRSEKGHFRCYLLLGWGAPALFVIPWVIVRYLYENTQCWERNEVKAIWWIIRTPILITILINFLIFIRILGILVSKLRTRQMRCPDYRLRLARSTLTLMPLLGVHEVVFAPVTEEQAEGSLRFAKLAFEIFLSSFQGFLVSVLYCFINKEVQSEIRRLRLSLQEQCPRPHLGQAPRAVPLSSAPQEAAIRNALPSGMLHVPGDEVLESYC

[5] = molecular target: T1, rat pancreatic islet (wild type) GIP-receptor stably expressed on CHO-K1 cells (rat); assay: competition with 125I-GIP on intact CHO-K1 cells expressing rat GIP receptor
[6] = molecular target: T1, rat pancreatic islet (wild type) GIP-receptor stably expressed on CHO-K1 cells (rat); assay: cell-based or functional assay
[7] = molecular target: T2, DPIV (dipeptidyl peptidase IV) (Sus scrofa, UniProt P22411); assay: Determination of DPIV resistance by MALDI-TOF mass spectrometry; type: in vitro ADME; details: purified kidney DPIV, 0.04 M Tris buffer pH 7.6, up to 24 h, MALDI-TOF MS; read-out: half life after incubation with DP IV
T2 construct: The hydrolysis of peptide analogues by purified kidney DPIV was studied as described previously [12]; from tissue; host or cells: kidney
T2 sequence (P22411 whole entry): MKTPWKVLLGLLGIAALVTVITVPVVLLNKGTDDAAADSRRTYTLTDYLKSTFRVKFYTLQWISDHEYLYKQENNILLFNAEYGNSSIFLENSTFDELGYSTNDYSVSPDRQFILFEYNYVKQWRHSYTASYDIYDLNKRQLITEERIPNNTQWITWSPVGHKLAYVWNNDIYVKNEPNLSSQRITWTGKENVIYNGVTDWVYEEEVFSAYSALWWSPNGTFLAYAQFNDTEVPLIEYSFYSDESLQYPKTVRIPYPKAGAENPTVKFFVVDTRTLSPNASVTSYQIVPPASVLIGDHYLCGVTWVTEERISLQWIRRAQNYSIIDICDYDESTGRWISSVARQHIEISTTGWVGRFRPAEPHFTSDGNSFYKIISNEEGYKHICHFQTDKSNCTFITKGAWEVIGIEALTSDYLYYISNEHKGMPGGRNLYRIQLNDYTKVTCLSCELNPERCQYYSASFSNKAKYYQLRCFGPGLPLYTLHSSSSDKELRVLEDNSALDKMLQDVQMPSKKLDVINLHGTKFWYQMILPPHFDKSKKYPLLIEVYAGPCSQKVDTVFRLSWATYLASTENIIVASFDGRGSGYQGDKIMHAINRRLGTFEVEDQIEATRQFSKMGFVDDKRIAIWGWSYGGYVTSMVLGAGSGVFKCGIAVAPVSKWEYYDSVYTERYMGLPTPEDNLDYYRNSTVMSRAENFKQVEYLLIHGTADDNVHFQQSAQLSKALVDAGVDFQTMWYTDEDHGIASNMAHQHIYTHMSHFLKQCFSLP
Protocol: The hydrolysis of peptide analogues by purified kidney DPIV was studied as described previously. […] Samples were removed from the incubation mixture and prepared for MALDI-TOF mass spectrometry, as described in Pauly, […]., Pederson, R. A., and Demuth, H. U.

[8] = molecular target: T3, rat pancreatic islet (wild type) GIP-receptor (Rattus norvegicus, UniProt P43219); assay: biochemical; type: binding
T3 construct: expressed in transfected cells; host or cells: CHO-K1 (Chinese hamster ovary)
T3 sequence (P43219 19-455): T1 sequence (looked up)
Protocol: (§2) Cells were cultured in DMEM/F12, supplemented with 10% newborn calf serum, 50 units/ml penicillin G, and 50 μg/ml streptomycin (Culture media and antibiotics from Gibco BRL, Life Technologies). Cells were grown in 75 cm^2 flasks until 80-90% confluent, when they were split and seeded onto 24 well plates at a density of 50,000 cells/well. Experiments were carried out 48 h later.
(§3) Binding studies using ^125I-labeled spGIP1-42, purified by high performance liquid chromatography (HPLC), were performed essentially as described previously-[21]. wtGIP-R1 Cells (1-5×10^5/well) were washed twice at 4° C. in binding buffer (BB), consisting of DMEM/F12 (GIBCO), 15 mM HEPES, 0.1% bovine serum albumin (BSA), 1% Trasylol (aprotinin; Bayer), pH 7.4. They were incubated for 12-16 h at 4° C. with ^125I-spGIP (50,000 cpm) in the presence or absence of unlabeled GIP1-42 or analogue. Following incubation, cells were washed twice with ice cold buffer, solubilized with 0.1 M NaOH (1 ml), and transferred to culture tubes for counting of cell-associated radioactivity. Nonspecific binding was defined as that measured in the presence of 1 μM GIP1-42 or GIP1-30, and specific binding expressed as % of binding in the absence of competitor (% B/Bo).

[9] = molecular target: T3, rat pancreatic islet (wild type) GIP-receptor; assay: cAMP production in CHO-K1 cells expressing the GIP-receptor (wtGIP-R1 cells); type: cell-based; details: basal cyclic AMP = 2.737 ± 0.079 fmol/1000 cells; for cAMP Production (Fold Basal) 10 μM: 10 μM peptide
Protocol: as §2
Cells were extracted with 70% ethanol and cAMP levels measured by radioimmunoassay (Biomedical Technologies, Stoughton, Mass.). Data are expressed as fmol/1000 cells or % maximal GIP1-42-stimulated cAMP production (inhibition experiments).

[10] = molecular target: T4, rat pancreatic islet (wild type) GIP-receptor stably expressed on CHO-K1 cells (rat, UniProt P43219 19-455); assay: cell-based or functional assay
T4 sequence (looked up): T1 sequence (looked up)

[11] = molecular target: T4, rat pancreatic islet (wild type) …; assay: displacement of 125I-GIP from intact CHO-K1 cells expressing rat GIP receptor, 10 µM peptide
Protocol: as §2, with “cm²” for “cm^2”
as §3, with “¹²⁵I-labeled spGIP₁₋₄₂,” for “^125I-labeled spGIP1-42,”, “(1-5×10⁵/well)” for “(1-5×10^5/well)”, “¹²⁵I-spGIP” for “^125I-spGIP”, “GIP₁₋₄₂” for “GIP1-42”, “GIP₁₋₃₀,” for “GIP1-30,”

[12] = molecular target: T4, rat pancreatic islet (wild type) …; assay: competition with 125I-GIP on intact CHO-K1 cells expressing rat GIP receptor
Protocol: as §2, with “cm²” for “cm^2”
as §3, with “¹²⁵I-labeled spGIP₁₋₄₂,” for “^125I-labeled spGIP1-42,”, “(1-5×10⁵/well)” for “(1-5×10^5/well)”, “¹²⁵I-spGIP” for “^125I-spGIP”, “GIP₁₋₄₂” for “GIP1-42”, “GIP₁₋₃₀,” for “GIP1-30,”

With `CC(=O)N[C@@H](CC(=O)O)C(=O)N[C@@H](CCC(=O)O)C(=O)N[C@H](C(=O)N[C@H](C=O)CC(=O)O)C(C)C` [Ac-DEVD-CHO] the “0 mM glucose induced caspase-3 activity” value [1] was “completely blocked low glucose activation”.

For glucagon-like peptide-17-36 [GLP-1], the “cell growth, % of that measured in the presence of 5.5 mM glucose” value ([2]; separate experiment, 100 nM, n=4) was 129±4%.

In the case of `O=S(=O)(NCCNC/C=C/c1ccc(Br)cc1)c1cccc2cnccc12` [H89], the “effect of protein kinase inhibitor on GIP-mediated cell survival” value (from here on “effect of protein kinase inhibitor”) [3] is reported as “lack of effect; also recorded: unable to reverse”.

For `COc1cccc(-c2cc(=O)c3ccccc3o2)c1N` [PD98059], the “effect of protein kinase inhibitor” value [3] was “Neither of the Mek1/2 inhibitors PD98059 (50 and 100 μM) nor U0126 (10 μM) blocked”.

`N#CC(=C(/N)Sc1ccccc1N)/C(C#N)=C(\N)Sc1ccccc1N` [U0126] was tested, and the “effect of protein kinase inhibitor” value [3] was “Neither of the Mek1/2 inhibitors PD98059 (50 and 100 μM) nor U0126 (10 μM) blocked”.

With GIP 15-42OH (peptide) the % Displacement at 10 µM [4] was 83.3%, the IC50 [5] was 1270 nM and the cAMP Production (Fold Basal) at 10 µM [6] was 1.02 fold basal. For the same molecule, the cAMP Production (Fold Basal) at 20 µM [6] was 1.01 fold basal.

“GIP 1-15OH (from UniProt P09681 52-66) (peptide)” showed a % Displacement at 10 µM [4] of -3.1%.

For “YAEGTFISDYSIAMDKIRQQDFVNWLLAQK-NH2 [GIP1-30a, reference compound]”, the half-life [7] was under 0.25 h, the “Receptor Binding % Displacement at 10 μM” value ([8]; 10 μM peptide, 125I-GIP) was 99.8 ± 1.2% and the “cAMP Production (Fold Basal) 10 μM” value [9] was 108 ± 12 Fold Basal.

YAEGTF-NH2 [GIP1-6a] was tested, and the half-life [7] was over 0.125 h and the “Receptor Binding % Displacement at 10 μM” value ([8]; 10000.0) was −3.6 ± 7.8%.

“YSEGTFISDYSIAMDKIRQQDFVNWLLAQK-NH2 [Ser^2-GIP1-30a]” gave a half-life [7] of 2.28 ± 0.205 h.

For “GIP 1-7NH2 (from UniProt P09681 52-58) (peptide)”, the % Displacement at 10 µM [4] was -6.1%.

`Oc1ccc(-c2nc(-c3ccncc3)c(-c3ccc(F)cc3)[nH]2)cc1` [SB202190] was tested, and the “effect of protein kinase inhibitor” value [3] was “influenced GIP-mediated cell survival”.

“YGEGTFISDYSIAMDKIRQQDFVNWLLAQK-NH2 [Gly^2-GIP1-30a]” showed a half-life [7] of 2.51 ± 0.455 h.

“ISDYSIAMDKIRQQDFVNWLLAQK-NH2 [GIP7-30a, reference compound]” was tested, and the half-life [7] was 2.17 ± 0.177 h, the “Receptor Binding % Displacement at 10 μM” value ([8]; 10 μM peptide, 125I-GIP) was 99.3 ± 1.0% and the “cAMP Production (Fold Basal) 10 μM” value [9] was 0.89 ± 0.06 Fold Basal. The “cAMP Production (Fold Basal) 20 μM” value ([9]; 20 μM peptide) was 0.85 ± 0.03 Fold Basal.

For “GH: GH, comparator for cell growth in INS-1 cells”, the “cell proliferation, % of growth in the presence of 5.5 mM glucose” value ([2]; 11 mM glucose, 10 nM, FIG. 15A) was 158±9%.

With YAEGTFISDYSIAM-NH2 (peptide, UniProt P09681 52-65, looked up, range 1-14) [GIP 1-14NH2] the “cAMP Production (Fold Basal) at 10 µM” value [10] was 75.4 fold basal, the “cAMP Production (Fold Basal) at 20 µM” value [10] was 88.3 fold basal and the “% Displacement at 10 µM” value [11] was 27.9%.

B1: GIP 1-14OH (peptide, UniProt P09681 52-65, looked up)
peptide: YAEGTFISDYSIAM-OH
notes: range 1-14; free acid form; also called native GIP (1-14)
B1 was tested, and the “cAMP Production (Fold Basal) at 10 µM” value [10] was 88.9 fold basal, the “cAMP Production (Fold Basal) at 20 µM” value [10] was 85.2 fold basal and the “% Displacement at 10 µM” value [11] was 51.3%.

QQDFVNWLLAQK-NH2 (peptide, UniProt P09681 70-81, looked up, range 19-30; also called GIP19-30a) [GIP 19-30NH2] was tested, and the “cAMP Production (Fold Basal) at 10 µM” value [10] was 20.1 fold basal, the “cAMP Production (Fold Basal) at 20 µM” value [10] was 45 fold basal and the “% Displacement at 10 µM” value [11] was 52.3%.

With YAEGTFISDYSIA-NH2 (peptide, UniProt P09681 52-64, looked up, range 1-13) [GIP 1-13NH2] the “cAMP Production (Fold Basal) at 10 µM” value [10] was 6.51 fold basal, the “cAMP Production (Fold Basal) at 20 µM” value [10] was 15.7 fold basal and the “% Displacement at 10 µM” value [11] was 5%.

YAEGTF-NH2 (peptide, UniProt P09681 52-57, looked up) [GIP 1-6NH2] was tested, and the % Displacement at 10 µM [4] was -3.6%, the cAMP Production (Fold Basal) at 10 µM [6] was 1.27 fold basal and the cAMP Production (Fold Basal) at 20 µM [6] was 1.08 fold basal.

For DKIRQQDFVNWLLAQK-NH2 (peptide, UniProt P01281 15-30, looked up, range 15-30; also called GIP15-30a) [GIP 15-30NH2], the IC50 [12] was 1400 nM, the “cAMP Production (Fold Basal) at 10 µM” value [10] was 1.24 fold basal and the “cAMP Production (Fold Basal) at 20 µM” value [10] was 1.01 fold basal. The “% Displacement at 10 µM” value [11] was 82.7%.

In the case of YAEGTFISDYSIA-OH (peptide, UniProt P09681 52-64, looked up) [GIP 1-13OH], the % Displacement at 10 µM [4] is reported as -0.2%, the cAMP Production (Fold Basal) at 10 µM [6] is reported as 1.03 fold basal and the cAMP Production (Fold Basal) at 20 µM [6] is reported as 1.15 fold basal.

IRQQDFVNWLLAQK-NH2 (peptide, UniProt P01281 17-30, looked up, range 17-30; also called GIP17-30a) [GIP 17-30NH2] was tested, and the IC50 [12] was 1540 nM, the “cAMP Production (Fold Basal) at 10 µM” value [10] was 1.13 fold basal and the “cAMP Production (Fold Basal) at 20 µM” value [10] was 1.12 fold basal. The “% Displacement at 10 µM” value [11] was 81.9%.
